Reference: patent US20230416942A1 (YALE UNIVERSITY, published 2023)
Values belong to the binder of their own block, whether it stands above or below them.

Tests used:
[1] = target: T1, IL21 (human, UniProt Q9HBE4 32-162, limits assumed); assay: ELISA, plate-coated recombinant human protein, nanobody-Fc
T1 construct: Recombinant human protein in ELISA
Protocol: (§1) Recombinant human protein was diluted in PBS to a final concentration of 5 μg/mL and was immobilized on 96-well flat bottom MaxiSorp plates (Thermo Fisher Scientific) and placed at 4° C. overnight. Plates were washed three times with 225 μL ELISA wash buffer (PBS with 0.05% Tween 20) and 200 μL ELISA blocking buffer (PBS with 1% Casein) was added to the well. Plates were incubated with shaking for 2 hours at room temperature. ELISA blocking buffer was removed from the wells and appropriate dilutions of recombinant nanobodies in 100 μL ELISA blocking buffer was added to each well. Plates were incubated with shaking for 2 hours at room temperature. Plates were washed 3 times with 225 μL ELISA wash buffer and 1:5000 goat anti-human IgG HRP (Millipore Sigma) in 100 μL ELISA blocking buffer was added to the wells. Plates were incubated with shaking for 1 hour at room temperature. Plates were washed 6 times with 225 μL ELISA wash buffer. 50 μL TMB substrate (BD Biosciences) was added to the wells and plates were incubated for 15 minutes in the dark at room temperature. 50 μL 1 M sulfuric acid was added to the wells and absorbance at 450 nm was measured in a Synergy HTX Multi-Mode Microplate Reader (BioTek).

[2] = target: REAP Off-Targets; assay: REAP, nanobody-Fc on yeast-displayed human antigen library
[3] = target: T2, TNF (recombinant human protein) (human, UniProt P01375 77-233); assay: ELISA, recombinant human protein coated, nanobody-Fc titrated, anti-human IgG HRP
T2 construct: Recombinant human protein immobilized at 5 ug/mL for ELISA
T2 sequence (P01375 77-233 limits assumed): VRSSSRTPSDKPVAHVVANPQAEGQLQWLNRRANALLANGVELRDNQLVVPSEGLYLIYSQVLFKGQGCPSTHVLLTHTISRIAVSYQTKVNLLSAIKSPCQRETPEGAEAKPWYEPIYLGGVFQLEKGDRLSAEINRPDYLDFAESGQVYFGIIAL
Protocol: as §1

[4] = target: T3, TNFSF18 (recombinant human protein) (human, UniProt Q9UNG2 52-177, limits assumed); assay: as above
T3 construct: Recombinant human protein immobilized at 5 ug/mL for ELISA
T3 sequence (looked up): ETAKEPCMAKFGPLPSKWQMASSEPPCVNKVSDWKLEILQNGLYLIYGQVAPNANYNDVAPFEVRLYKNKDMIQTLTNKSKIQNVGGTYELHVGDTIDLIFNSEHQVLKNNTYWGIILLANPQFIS
Protocol: as §1

[5] = target: T4, IL17A (human, UniProt Q16552 24-155); assay: BLI, AHC sensor, nanobody-Fc captured, antigen in solution
T4 construct: Recombinant human protein in ELISA and BLI
T4 sequence (looked up): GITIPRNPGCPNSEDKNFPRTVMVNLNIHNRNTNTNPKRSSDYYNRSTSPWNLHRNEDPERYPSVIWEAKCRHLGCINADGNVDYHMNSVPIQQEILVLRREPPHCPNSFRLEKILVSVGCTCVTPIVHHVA
Excerpt: Octet RED96 System (ForteBio) was used to perform kinetic measurement of nanobody binding to antigens. For Anti-Penta-His Biosensors (HIS1K), his-tagged recombinant human proteins were first immobilized onto the biosensors, and recombinant nanobodies fused with human IgG1 were applied to detect binding. For Anti-Human IgG Fc Capture Biosensors (AHC), recombinant nanobodies fused with human IgG1 were first loaded onto the biosensors, and probes were dipped in serial dilutions of recombinant human antigens.

[6] = target: T4, IL17A; assay: ELISA, plate-coated recombinant human protein, nanobody-Fc
Protocol: as §1

[7] = target: T5, IL1RN (human, UniProt P18510 26-177); assay: as above
T5 construct: Recombinant human protein in ELISA and BLI
T5 sequence (P18510 26-177 limits assumed): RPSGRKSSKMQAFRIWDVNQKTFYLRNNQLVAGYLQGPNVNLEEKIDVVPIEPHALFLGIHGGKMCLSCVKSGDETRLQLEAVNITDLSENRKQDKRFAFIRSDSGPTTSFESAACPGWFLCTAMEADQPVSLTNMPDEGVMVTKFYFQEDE
Protocol: as §1

[8] = target: T6, CEACAM4 (human, UniProt O75871 36-155, limits assumed); assay: as above
T6 construct: Recombinant human protein in ELISA
T6 sequence (looked up): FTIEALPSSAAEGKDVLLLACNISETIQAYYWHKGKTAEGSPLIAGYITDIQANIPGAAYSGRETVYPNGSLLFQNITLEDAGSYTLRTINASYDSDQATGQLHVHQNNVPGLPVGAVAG
Protocol: as §1

[9] = target: T7, CD3D (human, UniProt P04234 22-105); assay: as above
T7 construct: Recombinant human protein in ELISA
T7 sequence (P04234 22-105 limits assumed): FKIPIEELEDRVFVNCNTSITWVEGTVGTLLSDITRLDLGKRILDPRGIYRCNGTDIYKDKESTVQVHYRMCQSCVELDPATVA
Protocol: as §1

[10] = target: T8, TIGIT (human, UniProt Q495A1 22-141); assay: as above
T8 construct: Recombinant human protein in ELISA
T8 sequence (looked up): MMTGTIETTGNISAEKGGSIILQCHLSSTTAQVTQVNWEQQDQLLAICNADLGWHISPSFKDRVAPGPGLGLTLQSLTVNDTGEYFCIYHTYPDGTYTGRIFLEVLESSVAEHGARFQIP
Protocol: as §1

[11] = target: T9, IL13 (human, UniProt P35225 35-146, limits assumed); assay: as above
T9 construct: Recombinant human protein in ELISA
T9 sequence (P35225 35-146 limits assumed): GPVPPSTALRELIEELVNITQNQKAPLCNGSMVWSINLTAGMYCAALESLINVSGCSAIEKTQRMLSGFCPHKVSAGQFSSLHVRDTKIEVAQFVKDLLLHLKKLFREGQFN
Protocol: as §1

[12] = target: T10, CCL16 (human, UniProt O15467 24-120); assay: as above
T10 construct: Recombinant human protein in ELISA and BLI
T10 sequence (looked up): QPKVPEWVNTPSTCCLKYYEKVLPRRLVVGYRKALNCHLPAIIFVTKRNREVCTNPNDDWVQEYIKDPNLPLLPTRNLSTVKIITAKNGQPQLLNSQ
Protocol: as §1

T1 sequence (Q9HBE4 32-162 limits assumed): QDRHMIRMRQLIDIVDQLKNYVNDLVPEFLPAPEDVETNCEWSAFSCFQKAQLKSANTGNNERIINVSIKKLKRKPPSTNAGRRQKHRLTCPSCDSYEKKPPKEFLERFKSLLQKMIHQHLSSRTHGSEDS

B4: IL17A_Nb2.90 (Fc fusion)
chain: QVQLQESGGGLVQAGGSLRLSCAASGYISLRFYMGWYRQAPGKEREFVATIDDGSSTYYADSVKGRFTISRDNAKNTVYLQMNSLKPEDTAVYYCAVTAQTYYDHVYWGQGTQVTVSS
notes: Nanobody expressed and tested as Fc fusion (human IgG1); not shown: human IgG1 Fc (vector pCER243)
Kd [5]: 0.977 nM
EC50 [6]: 0.249 nM

B5: IL1RN_Nb75 (Fc fusion)
chain: QVQLQESGGGLVQAGGSLRLSCAASGNIFRYDNMGWYRQAPGKEREFVATITYGSNTYYADSVKGRFTISRDNAKNTVYLQMNSLKPEDTAVYYCAAYFPYRSYDNSADTSSHSYWGQGTQVTVSS
notes: as for B4
EC50 [7]: 6.9 nM

B6: CEACAM4_Nb41 (Fc fusion)
chain: QVQLQESGGGLVQAGGSLRLSCAASGTISRSSIMGWYRQAPGKEREFVAGISYGSTTYYADSVKGRFTISRDNAKNTVYLQMNSLKPEDTAVYYCAVRDLYVWDHAYWGQGTQVTVSS
notes: as for B4
EC50 [8]: 32.7 nM

B7: CD3D_Nb2.34 (Fc fusion)
chain: QVQLQESGGGLVQAGGSLRLSCAASGTISTLDYMGWYRQAPGKEREFVAAINYGSNTYYADSVKGRFTISRDNAKNTVYLQMNSLKPEDTAVYYCAAADVTRPAYDYWGQGTQVTVSS
notes: as for B4
EC50 [9]: 0.575 nM

B10: CEACAM4_Nb36 (Fc fusion)
chain: QVQLQESGGGLVQAGGSLRLSCAASGNIFLGPYMGWYRQAPGKEREFVASINYGASTNYADSVKGRFTISRDNAKNTVYLQMNSLKPEDTAVYYCAAGYYSNDYYYYEYSYWGQGTQVTVSS
notes: as for B4
EC50 [8]: 15.6 nM

B12: IL13_Nb2.41 (Fc fusion)
chain: QVQLQESGGGLVQAGGSLRLSCAASGTIFVDEFMGWYRQAPGKEREFVASINDGGSTYYADSVKGRFTISRDNAKNTVYLQMNSLKPEDTAVYYCAVFEPSPDGDPFGDRAWFWYWGQGTQVTVSS
notes: as for B4
EC50 [11]: 1.02 nM

B13: CCL16_Nb2.5 (Fc fusion)
chain: QVQLQESGGGLVQAGGSLRLSCAASGYIFGVYDMGWYRQAPGKERELVATISAGGTTNYADSVKGRFTISRDNAKNTVYLQMNSLKPEDTAVYYCAAYTDYSPYDGAALVYWGQGTQVTVSS
notes: as for B4
EC50 [12]: 1.78 nM

B16: IL13_Nb2.42 (Fc fusion)
chain: QVQLQESGGGLVQAGGSLRLSCAASGTISATDFMGWYRQAPGKERELVAAINHGGSTYYADSVKGRFTISRDNAKNTVYLQMNSLKPEDTAVYYCAAARDDYPWHDYWGQGTQVTVSS
notes: as for B4
EC50 [11]: 38.4 nM

B18: CEACAM4_Nb40 (Fc fusion)
chain: QVQLQESGGGLVQAGGSLRLSCAASGTISPGYGMGWYRQAPGKEREFVATIAFGSSTYYADSVKGRFTISRDNAKNTVYLQMNSLKPEDTAVYYCAVAIYIPYFFRYWGQGTQVTVSS
notes: as for B4
EC50 [8]: 14.5 nM

B19: CD3D_Nb2.33 (Fc fusion)
chain: QVQLQESGGGLVQAGGSLRLSCAASGSIFYAEYMGWYRQAPGKEREFVAAITAGSTTYYADSVKGRFTISRDNAKNTVYLQMNSLKPEDTAVYYCAADGYYYGIEFTYYEYWGQGTQVTVSS
notes: as for B4
EC50 [9]: 8.22 nM

B20: CD3D_Nb2.35 (Fc fusion)
chain: QVQLQESGGGLVQAGGSLRLSCAASGTIFAYWYMGWYRQAPGKEREFVAAIGDGSSTYYADSVKGRFTISRDNAKNTVYLQMNSLKPEDTAVYYCAAEAPGYGHTYWGQGTQVTVSS
notes: as for B4
EC50 [9]: 1.72 nM

B21: CD3D_Nb2.36 (Fc fusion)
chain: QVQLQESGGGLVQAGGSLRLSCAASGSISAYWAMGWYRQAPGKEREFVAAINFGANTYYADSVKGRFTISRDNAKNTVYLQMNSLKPEDTAVYYCAAERDGDYHDYWGQGTQVTVSS
notes: as for B4
EC50 [9]: 29.6 nM

Other lines, results leading:

EC50 [1]: 3.73 nM
B1: IL21 Nb2.29 (Fc fusion)
chain: QVQLQESGGGLVQAGGSLRLSCAASGNISWGTIMGWYRQAPGKEREFVAAISHGANTNYADSVKGRFTISRDNAKNTVYLQMNSLKPEDTAVYYCAAQSRAGSTRPRYHKYWGQGTQVTVSS
notes: as for B4

REAP Off-Targets (number) [2]: 2 off-targets
EC50 [3]: 5.57 nM
B2: TNF_Nb105 (Fc fusion)
chain: QVQLQESGGGLVQAGGSLRLSCAASGTISVTYFMGWYRQAPGKERELVAGIGTGANTYYADSVKGRFTISRDNAKNTVYLQMNSLKPEDTAVYYCAAYIGAPVYGDGQSRNKAKVYDYWGQGTQVTVSS
notes: Nanobody expressed as an Fc fusion protein (fused with human IgG1) in Expi293 cells; not shown: human IgG1 Fc; nanobodies expressed as Fc fusion from vector pCER243

REAP Off-Targets (number) [2]: 4 off-targets
EC50 [4]: 6.05 nM
B3: TNFSF18_Nb98 (Fc fusion)
chain: QVQLQESGGGLVQAGGSLRLSCAASGSIFYVIAMGWYRQAPGKERELVATITAGTNTYYADSVKGRFTISRDNAKNTVYLQMNSLKPEDTAVYYCAVYALQQDVYDRSHAYWGQGTQVTVSS
notes: as for B2

EC50 [10]: 29.8 nM
B8: TIGIT_Nb2.81 (Fc fusion)
chain: QVQLQESGGGLVQAGGSLRLSCAASGTISLLEYMGWYRQAPGKEREFVAAITGGSSTNYADSVKGRFTISRDNAKNTVYLQMNSLKPEDTAVYYCAASLVPYDKDNLFFGYWGQGTQVTVSS
notes: as for B4

Kd [5]: 0.656 nM
EC50 [6]: 0.179 nM
B9: IL17A_Nb2.92 (Fc fusion)
chain: QVQLQESGGGLVQAGGSLRLSCAASGTISQGDYMGWYRQAPGKEREFVASIAIGTITYYADSVKGRFTISRDNAKNTVYLQMNSLKPEDTAVYYCAVSVQFSYDFYYWGQGTQVTVSS
notes: as for B4

EC50 [10]: 483 nM
B11: TIGIT_Nb2.84 (Fc fusion)
chain: QVQLQESGGGLVQAGGSLRLSCAASGNISYVRWMGWYRQAPGKERELVAGIGVGGITNYADSVKGRFTISRDNAKNTVYLQMNSLKPEDTAVYYCAATDVDWILYRYWGQGTQVTVSS
notes: as for B4

EC50 [1]: 3.14 nM
B14: IL21_Nb2.28 (Fc fusion)
chain: QVQLQESGGGLVQAGGSLRLSCAASGSISNTYVMGWYRQAPGKERELVAAIGHGGTTYYADSVKGRFTISRDNAKNTVYLQMNSLKPEDTAVYYCAVYLSRVRKFYYWGQGTQVTVSS
notes: as for B4

EC50 [10]: 12.8 nM
B15: TIGIT_Nb2.82 (Fc fusion)
chain: QVQLQESGGGLVQAGGSLRLSCAASGTISVVQDMGWYRQAPGKERELVAGIAKGGNTYYADSVKGRFTISRDNAKNTVYLQMNSLKPEDTAVYYCAASPIPFSYAYPAYHYWGQGTQVTVSS
notes: as for B4

EC50 [1]: 7.16 nM
B17: IL21_Nb2.30 (Fc fusion)
chain: QVQLQESGGGLVQAGGSLRLSCAASGTIFRETVMGWYRQAPGKERELVAAIDDGTSTYYADSVKGRFTISRDNAKNTVYLQMNSLKPEDTAVYYCAARASYTYGRLRFRYWGQGTQVTVSS
notes: as for B4

REAP Off-Targets (number) [2]: 7 off-targets
EC50 [3]: 23.8 nM
B22: TNF_Nb109 (Fc fusion)
chain: QVQLQESGGGLVQAGGSLRLSCAASGYISGEWFMGWYRQAPGKERELVAGISRGSTTYYADSVKGRFTISRDNAKNTVYLQMNSLKPEDTAVYYCAVYLTHKGYDGADGVVHHRYWGQGTQVTVSS
notes: as for B2
